This note sets out measurements from publication PMC11667970, “Mycobacterium tuberculosis Mce3R TetR-like Repressor Forms an Asymmetric Four-Helix Bundle and Binds a Nonpalindrome Sequence†” (ACS Chemical Biology, 2024).

In series [1] the target is T1, Mce3R (Mycobacterium tuberculosis H37Rv, UniProt P95251 1-406).
T1 sequence: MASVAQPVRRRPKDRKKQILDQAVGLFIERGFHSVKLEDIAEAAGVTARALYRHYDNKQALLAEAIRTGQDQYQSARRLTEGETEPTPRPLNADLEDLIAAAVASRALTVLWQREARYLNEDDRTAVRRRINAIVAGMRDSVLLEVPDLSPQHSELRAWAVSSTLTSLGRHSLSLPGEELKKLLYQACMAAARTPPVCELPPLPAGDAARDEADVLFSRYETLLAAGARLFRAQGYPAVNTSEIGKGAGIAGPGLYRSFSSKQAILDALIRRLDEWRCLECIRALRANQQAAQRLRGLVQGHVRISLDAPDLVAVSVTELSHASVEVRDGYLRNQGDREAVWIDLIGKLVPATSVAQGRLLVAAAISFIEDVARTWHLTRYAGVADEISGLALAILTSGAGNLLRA
The experiment in a line: EMSA. To be noted: protein: recombinant; tags: MBP-His6 N-terminal, removed with TEV; chain copies: 2; label: 5'-Cy3; blunt. Background: In EMSA bound probe runs differently from free probe, usually more slowly.

In series [2] the target is T1, Mce3R. As to the kind of experiment: EMSA; 10 nM DNA, 0-128 nM protein. To be noted: protein: recombinant; tags: MBP-His6 N-terminal, removed with TEV; chain copies: 2; label: 5'-Cy3 (forward strand); blunt.
Series [3] deals with T1, Mce3R. The experiment in a line: EMSA; up to 128 nM Mce3R, 1 ug poly(dI-dC). To be noted: protein: recombinant; tags: MBP-His6 N-terminal, removed with TEV; chain copies: 2; label: 5'-Cy3 (forward strand); blunt.
Series [4] deals with the molecule itself. As to the kind of experiment: SEC. (In general: In gel filtration, larger molecules generally elute earlier.)

In general, Kd refers to the equilibrium constant for the complex coming apart. As a reminder, the stoichiometry N is the number of molecules, sites or subunits per partner or assembly.

B1: Probe C (dsDNA)
DNA 1: TAGCCAATATATGCCAGTTTGCATTGCTATTTACCGATCAGTTGTCCAAGCAATCGCGTATTGGCTATGGACATCAGCGGTTCTGCCGC
DNA 2: GCGGCAGAACCGCTGATGTCCATAGCCAATACGCGATTGCTTGGACAACTGATCGGTAAATAGCAATGCAAACTGGCATATATTGGCTA
In the case of B1, in series [1], the binding result is given as “binds”.

B2: Probe A* (dsDNA)
DNA 1: CTACAAGTGCTGGAGGTCAAATCCCGCATCAACATAGCCAATATATGCCAGTTTGCATTGCTATTTACCGATCAGTTGTCCAAGCAATCGCGTATTGGCTATGGACATCAGCGGTTCTGCCGC
DNA 2: GCGGCAGAACCGCTGATGTCCATAGCCAATACGCGATTGCTTGGACAACTGATCGGTAAATAGCAATGCAAACTGGCATATATTGGCTATGTTGATGCGGGATTTGACCTCCAGCACTTGTAG
Consider B2, for which the Kd in series [2] stood at 59 ± 10 nM.

B3: Probe A' (dsDNA)
DNA 1: CCAGTGCGACCTAACCAAGGACCTACAGATTCTGTCCGTGAGAGAATCGTGTTGGCCTCAGAAGACGGTCGCAAGTTCTCTTTATGACCTGCTAAACTTGAGCCTATATTAGTTATCGCACCT
DNA 2: AGGTGCGATAACTAATATAGGCTCAAGTTTAGCAGGTCATAAAGAGAACTTGCGACCGTCTTCTGAGGCCAACACGATTCTCTCACGGACAGAATCTGTAGGTCCTTGGTTAGGTCGCACTGG
As for B3, in series [3], the binding result is recorded as “no binding”.

B4: Mce3R (Rv1963c), full-length TetR-like repressor of Mycobacterium tuberculosis (natural protein)
chain: MASVAQPVRRRPKDRKKQILDQAVGLFIERGFHSVKLEDIAEAAGVTARALYRHYDNKQALLAEAIRTGQDQYQSARRLTEGETEPTPRPLNADLEDLIAAAVASRALTVLWQREARYLNEDDRTAVRRRINAIVAGMRDSVLLEVPDLSPQHSELRAWAVSSTLTSLGRHSLSLPGEELKKLLYQACMAAARTPPVCELPPLPAGDAARDEADVLFSRYETLLAAGARLFRAQGYPAVNTSEIGKGAGIAGPGLYRSFSSKQAILDALIRRLDEWRCLECIRALRANQQAAQRLRGLVQGHVRISLDAPDLVAVSVTELSHASVEVRDGYLRNQGDREAVWIDLIGKLVPATSVAQGRLLVAAAISFIEDVARTWHLTRYAGVADEISGLALAILTSGAGNLLRA
notes: Mce3R (Rv1963c), Mycobacterium tuberculosis H37Rv, full length; calculated MW 44.3 kDa; also called M1M2 TFR; wild-type Mce3R; not shown: MBP, N-terminal, cleaved; His6, N-terminal, cleaved
With B4, the “stoichiometry N” value in series [4] came to 2.

B5: Probe A (dsDNA)
DNA 1: GCCCCGCGCTATAGGATACTAGCAAGATACATCATAGCCAATATATGCCAGTTTGCATTGCTATTTACCGATCAGTTGTCCAAGCAATCGCGTATTGGCTATGGACATCAGCGGTTCTGCCGC
DNA 2: GCGGCAGAACCGCTGATGTCCATAGCCAATACGCGATTGCTTGGACAACTGATCGGTAAATAGCAATGCAAACTGGCATATATTGGCTATGATGTATCTTGCTAGTATCCTATAGCGCGGGGC
Consider B5, for which, in series [2], the Kd amounted to 2.4 ± 0.7 nM.
